The target of the assay is CD47 on the surface of human red blood cells (human) (UniProt Q08722). Put plainly: FACS, hRBC, 500 nM.

B1: h140Hm13/h140Lm11 (antibody, V domains shown)
VH: EVQLVQSGAEVKKPGASVKVSCKASGYKFTNYVMSWVRQAPGQRLEWMGYINPYNDAIKYNEKFTGRVTITRDTSASTAYMELSSLRSEDTAVYYCAREGDFYANYGRLGFAYWGQGTLVTVSS
VL: DIQMTQSPSSLSASVGDRVTITCRASQDITNYLNWYQQKPGKAPKLLIYYTSRLSSGVPSRFSGSGSGTDYTFTISSLQPEDIATYFCQQGDTRPYTFGGGTKVEIK
B1 gave an FACS (MFI) of 789 MFI.

B2: h140Hm13/h140Lm16 (antibody, V domains shown)
VH: EVQLVQSGAEVKKPGASVKVSCKASGYKFTNYVMSWVRQAPGQRLEWMGYINPYNDAIKYNEKFTGRVTITRDTSASTAYMELSSLRSEDTAVYYCAREGDFYANYGRLGFAYWGQGTLVTVSS
VL: DIQMTQSPSSLSASVGDRVTITCRASQDITNYLNWYQQKPGKAPKLLIYYTSRLQSGVPSRFSGSGSGTDYTFTISSLQPEDIATYFCQQGDTSPYTFGGGTKVEIK
Consider B2, for which the FACS (MFI) amounted to 721 MFI.

B3: h140Hm13/h140Lm17 (antibody, V domains shown)
VH: EVQLVQSGAEVKKPGASVKVSCKASGYKFTNYVMSWVRQAPGQRLEWMGYINPYNDAIKYNEKFTGRVTITRDTSASTAYMELSSLRSEDTAVYYCAREGDFYANYGRLGFAYWGQGTLVTVSS
VL: DIQMTQSPSSLSASVGDRVTITCRASQDITNYLNWYQQKPGKAPKLLIYYTSRLQSGVPSRFSGSGSGTDYTFTISSLQPEDIATYFCQQGDTEPYTFGGGTKVEIK
B3 gave an FACS (MFI) of 689 MFI.

B4: h140Hm13/h140Lm12 (antibody, V domains shown)
VH: EVQLVQSGAEVKKPGASVKVSCKASGYKFTNYVMSWVRQAPGQRLEWMGYINPYNDAIKYNEKFTGRVTITRDTSASTAYMELSSLRSEDTAVYYCAREGDFYANYGRLGFAYWGQGTLVTVSS
VL: DIQMTQSPSSLSASVGDRVTITCRASQDITNYLNWYQQKPGKAPKLLIYYTSRLQSGVPSRFSGSGSGTDYTFTISSLQPEDIATYFCQQGDTRPYTFGGGTKVEIK
In turn, B4 displayed an FACS (MFI) of 946 MFI.

B5: h140Hm13/h140Lm13 (antibody, V domains shown)
VH: EVQLVQSGAEVKKPGASVKVSCKASGYKFTNYVMSWVRQAPGQRLEWMGYINPYNDAIKYNEKFTGRVTITRDTSASTAYMELSSLRSEDTAVYYCAREGDFYANYGRLGFAYWGQGTLVTVSS
VL: DIQMTQSPSSLSASVGDRVTITCRASQDITNYLNWYQQKPGKAPKLLIYYTSRLHSGVPSRFSGSGSGTDYTFTISSLQPEDIATYFCQQGDTFPYTFGGGTKVEIK
The molecule B5 showed an FACS (MFI) of 1760 MFI.

B6: h140Hm13/h140Lm18 (antibody, V domains shown)
VH: EVQLVQSGAEVKKPGASVKVSCKASGYKFTNYVMSWVRQAPGQRLEWMGYINPYNDAIKYNEKFTGRVTITRDTSASTAYMELSSLRSEDTAVYYCAREGDFYANYGRLGFAYWGQGTLVTVSS
VL: DIQMTQSPSSLSASVGDRVTITCRASQDITNYLNWYQQKPGKAPKLLIYYTSRLQSGVPSRFSGSGSGTDYTFTISSLQPEDIATYFCQQGDTNPYTFGGGTKVEIK
Molecule B6 came in with an FACS (MFI) of 697 MFI.

B7: h140Hm13/h140Lm15 (antibody, V domains shown)
VH: EVQLVQSGAEVKKPGASVKVSCKASGYKFTNYVMSWVRQAPGQRLEWMGYINPYNDAIKYNEKFTGRVTITRDTSASTAYMELSSLRSEDTAVYYCAREGDFYANYGRLGFAYWGQGTLVTVSS
VL: DIQMTQSPSSLSASVGDRVTITCRASQDITNYLNWYQQKPGKAPKLLIYYTSRLQSGVPSRFSGSGSGTDYTFTISSLQPEDIATYFCQQGDTKPYTFGGGTKVEIK
In turn, B7 registered an FACS (MFI) of 954 MFI.

B8: h140Hm13/h140Lm14 (antibody, V domains shown)
VH: EVQLVQSGAEVKKPGASVKVSCKASGYKFTNYVMSWVRQAPGQRLEWMGYINPYNDAIKYNEKFTGRVTITRDTSASTAYMELSSLRSEDTAVYYCAREGDFYANYGRLGFAYWGQGTLVTVSS
VL: DIQMTQSPSSLSASVGDRVTITCRASQDITNYLNWYQQKPGKAPKLLIYYTSRLQSGVPSRFSGSGSGTDYTFTISSLQPEDIATYFCQQGDTYPYTFGGGTKVEIK
As for B8, the FACS (MFI) is 921 MFI.

The values above are taken from patent US20230406921A1.
